Test results as given in patent US20230056336A1 (KYVERNA THERAPEUTICS, published 2023).
Changes are numbered by the printed parent chain. Names may count otherwise.

B1: CD25 L2F mutant (CD25-Fc) (Fc fusion)
chain: EFCDDDPPEIPHATFKAMAYKEGTMLNCECKRGFRRIKSGSLYMLCTGNSSHSSWDNQCQCTSSATRNTTKQVTPQPEEQKERKTTEMQSPMQPVDQASLPGHCREPPPWENEATERIYHFVVGQMVYYQCVQGYRALHRGPAESVCKMTHGKTRWTQPQLICTGEMETSQFPGEEKPQASPEGRPESETSCLVTTTDFQIQTEMAATMETSIFTTEYQ
notes: not shown: Fc part of CD25-Fc
B2: CD25 L42F mutant (CD25-Fc) (Fc fusion)
chain: B1 chain with F2L, L42F
notes: not shown: Fc part of CD25-Fc
B3: CD25 L42A mutant (CD25-Fc) (Fc fusion)
chain: B1 chain with F2L, L42A
notes: not shown: Fc part of CD25-Fc
B4: CD25 S41D mutant (CD25-Fc) (Fc fusion)
chain: B1 chain with F2L, S41D
notes: not shown: Fc part of CD25-Fc
B5: CD25 L2I mutant (CD25-Fc) (Fc fusion)
chain: B1 chain with F2I
notes: not shown: Fc part of CD25-Fc
B6: CD25 L42G mutant (CD25-Fc) (Fc fusion)
chain: B1 chain with F2L, L42G
notes: not shown: Fc part of CD25-Fc
B7: CD25 L42V mutant (CD25-Fc) (Fc fusion)
chain: B1 chain with F2L, L42V
notes: not shown: Fc part of CD25-Fc
B8: CD25 S41Q mutant (CD25-Fc) (Fc fusion)
chain: B1 chain with F2L, S41Q
notes: not shown: Fc part of CD25-Fc
B9: CD25 T47S mutant (CD25-Fc) (Fc fusion)
chain: B1 chain with F2L, T47S
notes: not shown: Fc part of CD25-Fc
B10: CD25 T47D mutant (CD25-Fc) (Fc fusion)
chain: B1 chain with F2L, T47D
notes: not shown: Fc part of CD25-Fc
B11: CD25 Y43R mutant (CD25-Fc) (Fc fusion)
chain: B1 chain with F2L, Y43R
notes: not shown: Fc part of CD25-Fc
B12: CD25 S41N mutant (CD25-Fc) (Fc fusion)
chain: B1 chain with F2L, S41N
notes: not shown: Fc part of CD25-Fc
B13: CD25 T47N mutant (CD25-Fc) (Fc fusion)
chain: B1 chain with F2L, T47N
notes: not shown: Fc part of CD25-Fc
B14: CD25 S41E mutant (CD25-Fc) (Fc fusion)
chain: B1 chain with F2L, S41E
notes: not shown: Fc part of CD25-Fc
B15: CD25 L42Y mutant (CD25-Fc) (Fc fusion)
chain: B1 chain with F2L, L42Y
notes: not shown: Fc part of CD25-Fc
B16: CD25 L2Y mutant (CD25-Fc) (Fc fusion)
chain: B1 chain with F2Y
notes: not shown: Fc part of CD25-Fc
B17: CD25 L42I mutant (CD25-Fc) (Fc fusion)
chain: B1 chain with F2L, L42I
notes: not shown: Fc part of CD25-Fc
B18: CD25 L42W mutant (CD25-Fc) (Fc fusion)
chain: B1 chain with F2L, L42W
notes: not shown: Fc part of CD25-Fc

Each binder was assayed against T1, basiliximab fab (assay: BLI; CD25-Fc on anti-hFc biosensor, basiliximab Fab in solution; global 1:1 fit;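 note: biolayer interferometry signals normalized against a reference probe and smoothed with a Savitzky-Golay filter before the global fit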).
T1 construct: The assay used a Fab of basiliximab; Chimeric antibody: human IgG1 constant, mouse variable domains
T1 sequence (VH, as listed by the source limits assumed, chain 1 of 2): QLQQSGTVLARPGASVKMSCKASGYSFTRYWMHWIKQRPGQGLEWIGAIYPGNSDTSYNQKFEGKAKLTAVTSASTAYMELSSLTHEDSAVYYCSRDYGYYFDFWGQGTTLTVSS
T1 sequence (VL, as listed by the source limits assumed, chain 2 of 2): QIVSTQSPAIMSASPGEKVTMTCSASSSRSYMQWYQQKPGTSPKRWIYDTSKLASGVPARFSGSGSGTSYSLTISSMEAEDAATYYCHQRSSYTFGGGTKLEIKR
Procedure: Briefly, binding affinity (KD) of CD25 mutants from Table 1 was measured using biolayer interferometry. […] Experimental data was normalized to a reference probe and high-frequency noise was removed by Savitzky-Golay filtering. On and off-rate constants were determined using a globally fitted 1:1 binding model.

Point of comparison: B6, Kd 1.14 nM. Against it:
- B1 — within 1.5-fold, 1.07 nM
- B2 — 6.7-fold higher, 7.65 nM
- B3 — 4.7-fold lower, 0.242 nM
- B4 — 5.7-fold higher, 6.49 nM
- B5 — 3-fold higher, 3.46 nM
- B7 — 3.4-fold higher, 3.93 nM
- B8 — 4.6-fold higher, 5.25 nM
- B9 — 3.9-fold higher, 4.49 nM
- B10 — 3.2-fold higher, 3.66 nM
- B11 — within 1.5-fold, 1.39 nM
- B12 — 3.4-fold higher, 3.85 nM
- B13 — 11-fold higher, 12.8 nM
- B14 — 5.3-fold higher, 6.08 nM
- B15 — 1.5-fold higher, 1.75 nM
- B16 — within 1.5-fold, 1.51 nM
- B17 — 20-fold higher, 23.3 nM
- B18 — within 1.5-fold, 1.04 nM

Point of comparison: B9, koff 0.00588 s⁻¹. Against it:
- B1 — 2.3-fold lower, 0.00252 s⁻¹
- B2 — 7.6-fold lower, 0.000772 s⁻¹
- B3 — 240-fold lower, 2.49e-05 s⁻¹
- B4 — within 1.5-fold, 0.00708 s⁻¹
- B5 — 8-fold lower, 0.000734 s⁻¹
- B6 — 39-fold lower, 0.000152 s⁻¹
- B7 — 7.9-fold lower, 0.000748 s⁻¹
- B8 — within 1.5-fold, 0.00512 s⁻¹
- B10 — within 1.5-fold, 0.00787 s⁻¹
- B11 — 15-fold lower, 0.000399 s⁻¹
- B12 — within 1.5-fold, 0.00707 s⁻¹
- B13 — within 1.5-fold, 0.00776 s⁻¹
- B14 — within 1.5-fold, 0.00719 s⁻¹
- B15 — 18-fold lower, 0.000325 s⁻¹
- B16 — 2.2-fold lower, 0.00263 s⁻¹
- B17 — 2-fold higher, 0.0116 s⁻¹
- B18 — 29-fold lower, 0.000201 s⁻¹

Point of comparison: B16, kon 1.75e+06 M⁻¹ s⁻¹. Against it:
- B1 — within 1.5-fold, 2.36e+06 M⁻¹ s⁻¹
- B2 — 17-fold lower, 101000 M⁻¹ s⁻¹
- B3 — 17-fold lower, 103000 M⁻¹ s⁻¹
- B4 — 1.6-fold lower, 1.09e+06 M⁻¹ s⁻¹
- B5 — 8.3-fold lower, 212000 M⁻¹ s⁻¹
- B6 — 13-fold lower, 133000 M⁻¹ s⁻¹
- B7 — 9.2-fold lower, 190000 M⁻¹ s⁻¹
- B8 — 1.8-fold lower, 975000 M⁻¹ s⁻¹
- B9 — within 1.5-fold, 1.31e+06 M⁻¹ s⁻¹
- B10 — within 1.5-fold, 2.15e+06 M⁻¹ s⁻¹
- B11 — 7.4-fold lower, 236000 M⁻¹ s⁻¹
- B12 — within 1.5-fold, 1.84e+06 M⁻¹ s⁻¹
- B13 — 2.9-fold lower, 608000 M⁻¹ s⁻¹
- B14 — within 1.5-fold, 1.18e+06 M⁻¹ s⁻¹
- B15 — 9.4-fold lower, 186000 M⁻¹ s⁻¹
- B17 — 3.5-fold lower, 499000 M⁻¹ s⁻¹
- B18 — 9-fold lower, 194000 M⁻¹ s⁻¹
